Values quoted from earlier work in publication PMC3826259.

Assays:
[1] = target: HIV-1 protease mature PR (Human immunodeficiency virus 1) (UniProt O93215)
[2] = target: p6*-PR precursor p6*-PR (Human immunodeficiency virus 1) (UniProt O93215)

| Substance | Kd [1] [nM] | Kd [2] [nM] |
| --- | --- | --- |
| HIV-1 protease mature PR (from UniProt O93215) | < 5 |  |
| p6*-PR precursor p6*-PR (from UniProt O93215) |  | 700 |
